Measurements reported in a protein production outcome set (Wang et al. 2014).

Experiment: label from the status in PepcDB records
In the case of “MLPLSLLKTAQGHPMLVELKNGETYNGHLVNCDTWMNIHLREVICTSKDGDRFWRMPECYIRGNTIKYLRVPDEVIDKVQEEKTRTDRKPPGVGRGRGRGVDDGGARGRGRGTSMGKMGGNRGAGRGRG”, the protein production is reported as “failed”.
In the case of “MLPPGMVAAESDFYLRRLWGLPHEDLKSEPRYLATFTVGINQKANIDACVKKFSENFTIVLFHYDGRVTEWDEFEWSKTAIHISVRKQTKWWYAKRFLHPDIVARYDYIFVWDEDLGVEHFNAEEYVKMVKKHGLEISQPGLEPNQGLTWQMTKRRGDMEVHKITEERPGWCSDPHLPPCAAYVEIMAPVFSRNAWRCVWHVIQNDLVHGWGLDFALRRCVEPAHEKIGVVDSQWVVHQSFPSLGNQGEATDGKAPWQGVRDRCKKEWTMFQSRMANAEKDYFKSLQVEGSSNSTATTI”, the protein production is reported as “failed”.
For “MLPQILIVILSLIEGLDPYKGLLFSYYFYSFKKVKESFVVPLLSTLSYYSLGILVVFFTFSSLQSSNSTKVIVIFLVIIHILMKMFLGKLLHYTGSMRVSVYNLVKSTFLNSILQMNVILLIILAIIVNTLFVFLPVGVFIVREVTYFIVLKKNNVLVLLTKFNFDYIYSVTLLILALAVLLQS”, the protein production was “failed”.
In the case of “MLPRVHRVRRGGTVYKYHRRTRKELPRDVPEDDPRFVAAWLAEEQRAPTVRSRSQAGTIAAACEAYLGSRSYRELSDGYRPVIRRHVERIKEQGEKALLKDLLPRHIRADLEPLSPPVASSRLKAWRKLAEFWLLKGMLDADPSEGVKRKKMGKVAGFTEWTAEDLEAFRARWPIGTAQRLALELYQWTGARCVDVIRLGPQMVGRDGVLTYVQQKTGNPAHVPWTCPAFGLEEQRADLMRCLPVGSPVYMLTEYGKPRTQKGVSQWFSAAAREAGLESRTAHGLRKYRMNALAEHGASVLVMQSWVGHTTLLEVQEYTRRADRRRVISGGHPVKRDPAGA”, the protein production is reported as “failed”.
In the case of “MLPSESTLLTNATILTGTGERINNGDILLVNGKVTQVGNNLSVEQATVIDMKGKWITPGIIDVHSHLGVYPNPEVLEHHHHHH”, the protein production is reported as “not failed”.
With “MLPVASLLILVPLIFAVVTFFTKTKQLAAGFGFLGSLATLGLTLYAYLNFDSSTAAMQFYESVSWIPFLGVNYSVGIDGVSMPLILLNAIVIPFMILFTWKEEMESPNRFYGLILTMQAAVIGVFVALDFVVFYIFWELTLVPLFFIVNLWGGANRAHASYKFFIYTHVASLVMLLGIFGLFYTALNQTGVPTFDIRELIAQFQFFEPGLMKDGIFLAILFGFLAKLPAFPFHSWLPDAYSEAPTAGSILFILLKIGGYGLFRISLPMLPNTGSPQLMIMILGLLGSVSILYGALLALRQKDLKRMIAYSSLSHMGYVILGSAGLVTLSVSGAMFQQFSHGLIMSIMFMSAGAIQTAAGTRIINELGGLAKKMPMLTVAMMVGFMASLGLPGLTGFIAEFLVLTFTFTNLPVFVVIALLAIVVTAGYHLWAMQRAMFGVYNEKLGDVRDINSIQVFSMAVIALLVLYFGLNPSPVLDMMINNSEAIVSLAAGMGV” the protein production was “failed”.
In the case of “MLPVQILKDNAQEERGESARLSSFVGAIAIGDLVKSTLGPKGMDKILISGNPESAGGIKVTNDGATILKSIGVDNPAAKVLVDMSMTQDHEVGDGTTSVTVLAAELLKEAEKLVNQRIHPQTIISGYRRALGIAQESLKKSSIESGDNIRDDLLKIARTTLGSKILSQHKEHFAQLAVDAVLRLKGSGNLDAIQIIKKLGGSMNESYLDEGFLLEKLPGMFQPRRVEKAKILIANTPMDTDKVKVFGSRVRVDGVAKVAELEAAEKLKMKEKVDKILAHNCNVFINRQLIYNYPEQLFADAKVMAIEHADFEGIERLALVLGGEIVSTFDSPQTAQFGSCDLIEEIMIGEDRLLRFSGVKLGEACSVVLRGATQQILDESERSLHDALCVLVTHVKESKTVAGAGASEILMSSAIAVEAQKVAGKEALAVEAFGRALAQLPTIICDNAGLDSAELVTRLRAEHANGRHNMGIDIEKGEVADVTKLGVIESYNVKLCMVSSAAEATEQILRVDDIIKAAPRARAQDNRPC”, the protein production is reported as “not failed”.
For “MLQCGAKNVNPLERFVSSLPVAAVLPELLAALDGASQVLLSAPTGAGKSTWLPLQLLAHPGINGKIILLEPRRLAARNVAQRLAELLNEKPGDTVGYRMRAQNCVGPNTRLEVITEGVLTRMIQRDPELSGVGLVILDEFHERSLQADLALALLLDVQQGLRDDLKLLIMSA”, the protein production was “failed”.
For “MLQEDLRKKAGQLFAVGFHGVVPSPEIKTLIHEYGIGGIVLFKRNIQNAMQLQLPGPMALGATHSPELAYQVGQVTGETLRFFGINMNYAPVCDINSEPLNPVIGPRSPGDDPEFVGRFASAAAQGLREQKIIPSVKHFPGHGDTAVDSHYGLPVIEKTREQLERCELIPFRRAVAEGVEAVMTAHISLPAIGDGKLPATLSADVLSILRNEMQFEGMIITDCLEMDGIRATYGTEQGAVLSLEAGSDSIMICHTYAVQVASIQKVCEAVQSGQLSASRLEEAYRRVVKLKSKFLSWDTALLTRSLDDLVTLNRKAA”, the protein production was “failed”.
In the case of “MLQMRTDLMAVACGRRSADLYIENGRVLNVHSGEILSGVGVAVASGRVAYVGPSRGMIGPETQFLDAEGGILVPGYVDPHAHFDNILSPRRLAEALLPLGTTMVVNDTLAVVARFGAPGLACLRAAATSLPLHFGWTVPISGWAPELEEAGYFAGLGLTDAELDVLLADETVLGTSEFLPWRRLLAGDQRLIARLDIARRHGKCCEGHNPGARADHLQVIAAAGLTDCHEALTSAEALNRLRAGLYVVLRHGPARYDLPELASLVMKEGVDRSRLMLTPDWVPPNDLAAFGHMDHPLSAAMEAGIPPLDAYRMASLNPARYFRIEGQIGSIAPGRYADILCLNDLREPRPKWVMAQGAVVARNGVPTPDWHGLDELELPAYRPSVLHASPADFRVASAGTGDVLVPAIEIMDRTVTRRIDLHLPVKDGVVSCAGEEGRVMKMAMPHPEGGFSIGFLVGVGGCLGAMSNSLASEPYHTLVIGTSDDDMAIAYNRMIELGGGVVTVQDGRIEAQLPLPLGGFMTKASAADVGAGIDAVNQWARNNGSNLENAFLTQHFLTYVGVPFFRMTPWGIYDVRKHCFLPPILNQGSEEDAL”, the protein production is reported as “failed”.
In the case of “MLQQQRTNSRGEKYVIGPTGAPLTLADLPPAETQRWVIRRKAEVVAAVRGGLLSLDEACDRYKLTNDEFLSWQQSIDRHGLAGLRTTRIQQYRLEHHHHHH”, the protein production is reported as “not failed”.
With “MLQSINQLNPDIVVITGDLTENGFSAEYDGVKMFIDRIECKNRVLVPGNHDSKNAGYLHFEDLFENRFQTRNLGNMTIVGADSSQPDIDDGHLGRENYGWIKEAFSGENFKVFALHHHLVPIPLAGRENTVLVDAGDVLDLLNKCRVNLVLCGHCHIPHVWNLNNMLVVNAGTFCSSKTRGKTTQCFNLIQAENSEKNGNGESEKIEDGGWKVRVSRVFPQGNIEFITETVMLEHHHHHH” the protein production was “failed”.
For “MLQVPKLTIIMPVYNTAQYLPRAFDALLKQIDKSFKLIVVDDGSTDNSVEVAQNYAYRFPYFKLIKKKNGGPSDARNVGMQYIDTPYVTFHDGDDWVDPGYTSFFIRAFEEHPDVNLVSCGYWMDYPDKKSRVVGRPEGGFLTRGETYLKLTNVFGSPMKGYSWNKAYKTAIIKKFHLQFDRDISLLEDQIFNVKYISVAKGVYYTQRPYYHYWQRKGSIIHQPNVKKVADNFRGNYRVWRRIIKTMLKDHEDEKMRKKLDRSPLRDSDVQ”, the protein production was “failed”.
With “MLRASLLCSSTSITFTPIQLFNPNSSHRFPRFELSRPVSALSRTKCHLSLLRARGKSSFLTRSTATDEAVETSSNSGLDLVEVGFLSGVHGLQGEICIKPNTDFPDLRFSKPGRRWLKQQLLGQDKIDEVELVEGRPHPAQKSWILKFRGLDDVDQVRQLVGATLLAEDDDRPELDEGEFYSRDLVGMRVLLKETGQLVGTVANIFDNGGNDLLHVLLDSSMEVCNGNAKTNQLVWIPFVDAIVPDVDLERKEMYITPPKGLLEVNMRADDRSKKERRQLEWKERKKQQKRLIAAKKKLCEMEQKHVFDGLRFGEKSQRNLLADHILNVNSTLLQKALQSIDTSSKRWNVTEEINALRARVSECNLSVSRECLSFDASKENMGDNFSFLQQGQNLFSEGKVSICLVLNDHENEEPEGENGVVSYLHALLDEEQRFIKEEDRACVPLVIVSPEHTIEALQKLFQDNDHFGFESEKIWILKEETLPVVCSSPEEPKKHKILMKSPWEILESPVGSGGVLSILASHGTTDSLSTLGINYLQVHSIETKPQPSQHYINPMLVGFVSARGAEIGIQVTEESELKNLEMTFSMKFLKRLKGKIEFEAVMKMNSHVQNVEKEWVESVPSEPNSFEFRSDIYRVLSECSSSAKICLMNITV” the protein production was “failed”.
With “MLRCSHSKGVNYINFSATGKLLVSVGVDPEHTITVWRWQEGTKVASRGGHLERIFVVEFRPDSDTQFVSVGVKHMKFWTLAGSALLYKKGVIGSMEAARMQTMLSVAFGANNLTFTGAINGDVYVWKEHFLIRLVAKAHTGPVFTMYTTLRDGLIVTGGKERPTKEGGAVKLWDQEMKRCRAFQLETGQLVECVRSVCRGKGKILVGTKDGEIIEVGEKSAASNILIDGHMEGEIWGLATHPSKDMFISASNDGTARIWDLADKKLLNKVNLGHAARCAAYSPDGEMVAIGMKNGEFIILLVNSLKVWGKKRDRKSAIQDIRISPDNRFLAVGSSEHTVDFYDLTQGTSLNRIGYCKDIPSFVIQMDFSADSKYIQVSTGAYKRQVHEVPLGKQVTEAMVIEKITWASWTSVLGDEVIGIWPRNADKADVNCACVTHDGLNIVTGDDFGLVKLFDFPCTEKFAKHKRYFGHSAHVTNIRFSYDDKYVVSTGGDDCSVFVWRCL” the protein production was “failed”.
For “MLRIFQGRPAVTIAAVLVAASVAGCAGKAKKPTLVYEERPVELLYSTGADRLDRGNWNEAVDYFREVERQHPYSEWSRRSILMTGYAHYMGNQYAEAIGDADRFISLYPGNPSAQYAFYLKAICYFEQIVDVNRDQAATEQALAALRDVVQRYPNTEYATDARLKIDMVNDQLAGKEMAIGRWYLKNGQTLAAIGRFKAVIERHQTTSHTPEALFRLVEAYLTIGLNEEAKRNGAVLGYNFPGDRWYVDAYRLLNDNGLRPAVEPLKAGAKRNALERILSKDKEATLAPPGERKAKKGLLGPLGM”, the protein production was “failed”.
With “MLRLSAPGQLDDDLCLLGDVQVPVFLLRLGEASWALVEGGISRDAELVWADLCRWVADPSQVHYWLITHKHYDHCGLLPYLCPRLPNVQVLASERTCQAWKSESAVRVVERLNRQLLRAEQRLPEACAWDALPVRAVADGEWLELGPRHRLQVIEAHGHSDDHVVFYDVRRRRLFCGDALGEFDEAEGVWRPLVFDDMEAYLESLERLQRLPTLLQLIPGHGGLLRGRLAADGAESAYTECLRLCRRLLWRQSMGESLDELSEELHRAWGGQSVDFLPGELHLGSMRRMLEILSRQALPLD” the protein production was “failed”.
With “MLRNKAFVVRLYPNAAQAERINRTLGCARFVYNHFLARRIESYRQDGKGMIYAATDKALTLLKREEGTAWLAEVDKFALQQSLRDLERAYQNFFRTAKKSGKKVGFPKFKKKRTGEAYRTQFTNNNIEIGEGKLKLPKLGWVKTRGQRDMQGKILNVTVRRIHEGHYEASVLCEVEIPYLPAAPKFAAGVDVGIKDFAIVTDGKGEFEHHANPKYYRSSLRRLRKAQKTLSRRKKGSARYGRAKTTLARIHKRVANKRQDFIHKLTTSLVREYEITCTEHLKPDNMRKNRRLALSVSDAGWGEFIRQLEYKATWYGRLVSKISPYFPSSQICHDCGFKNPAVKNLAVREWTCPNCGETHDRDENAALNIRREGLVAAGMSDTQNAHGDCIRPTSVGSGLRSENHATSVVLEHHHHHH” the protein production was “not failed”.
For “MLRQIRRNALSNFLSLWNEAATTSLGFFWMALWAFILGYVISSLIQVLVTRRKMQQAMGEDGPRSIALGTFFGFISSSCSFSALATTRAIFNKGAGLAPSLAFMLASTNLVIELGIVIAVFLGWQFVVGEYVGGVLLILVTWLLIRLTRPRRLEAQARRKMDDGDGDGGNSDKSWKEKITSKEGWQAIAQTYVMEWQMVWKDVLIGFTVAGIISAMVPQSFFEALFIGAGGENAANPGFLAVLSQTLVGPIAAFFTFIGSMGNIPLAAVLFAQGVSFAGVMAFIFSDLVVLPVLRINASYYGWKMALYILALMLVGIVTVSLLMHYSLALLGMLPDFSGQTSMGEREFFKWNYQAVLNILFLTATAILLWFWRQGQKQHSHDHHHHDHDHGGSSLTDKVLSVLVVVALLWLAGGVVVPLF”, the protein production was “failed”.
